Legend:
[1] = target: human PD-L1^ECD-hFc protein (human) (UniProt Q9NZQ7); experiment: ELISA, 10 nM mAb
[2] = target: cyno PD-L1^ECD-hFc protein (cyno) (UniProt G7PSE7); experiment: ELISA, 30 nM mAb
[3] = target: cyno PD-L1^ECD-hFc protein (cyno) (UniProt G7PSE7); experiment: ELISA, 0.3 nM mAb
[4] = target: human PD-L1^ECD-hFc protein (human) (UniProt Q9NZQ7); experiment: ELISA, 0.3 nM mAb
[5] = target: cyno PD-L1^ECD-hFc protein (cyno) (UniProt G7PSE7); experiment: ELISA, 0.03 nM mAb
[6] = target: human PD-L1^ECD-hFc protein (human) (UniProt Q9NZQ7); experiment: ELISA, 0.03 nM mAb
[7] = target: cyno PD-L1^ECD-hFc protein (cyno) (UniProt G7PSE7); experiment: ELISA, 0.041 nM mAb
[8] = target: human PD-L1^ECD-hFc protein (human) (UniProt Q9NZQ7); experiment: ELISA, 0.041 nM mAb
[9] = target: cyno PD-L1^ECD-hFc protein (cyno) (UniProt G7PSE7); experiment: ELISA, 0.123 nM mAb
[10] = target: human PD-L1^ECD-hFc protein (human) (UniProt Q9NZQ7); experiment: ELISA, 0.123 nM mAb
[11] = target: cyno PD-L1^ECD-hFc protein (cyno) (UniProt G7PSE7); experiment: ELISA, 3.333 nM mAb
[12] = target: human PD-L1^ECD-hFc protein (human) (UniProt Q9NZQ7); experiment: ELISA, 3.333 nM mAb
[13] = target: cyno PD-L1^ECD-hFc protein (cyno) (UniProt G7PSE7); experiment: ELISA, 0.001 nM mAb
[14] = target: human PD-L1^ECD-hFc protein (human) (UniProt Q9NZQ7); experiment: ELISA, 0.001 nM mAb
[15] = target: cyno PD-L1^ECD-hFc protein (cyno) (UniProt G7PSE7); experiment: ELISA, 0.003 nM mAb
[16] = target: human PD-L1^ECD-hFc protein (human) (UniProt Q9NZQ7); experiment: ELISA, 0.003 nM mAb
[17] = target: cyno PD-L1^ECD-hFc protein (cyno) (UniProt G7PSE7); experiment: ELISA, 0.0003 nM mAb
[18] = target: human PD-L1^ECD-hFc protein (human) (UniProt Q9NZQ7); experiment: ELISA, 0.0003 nM mAb
[19] = target: cyno PD-L1^ECD-hFc protein (cyno) (UniProt G7PSE7); experiment: ELISA, 0.00003 nM mAb
[20] = target: human PD-L1^ECD-hFc protein (human) (UniProt Q9NZQ7); experiment: ELISA, 0.00003 nM mAb
[21] = target: full length human PD-L1 on cells (human) (UniProt Q9NZQ7); experiment: FACS CHO-K1-hPD-L1, 1 nM mAb
Chain of full length human PD-L1 on cells (human) (Q9NZQ7 19-290 limits assumed): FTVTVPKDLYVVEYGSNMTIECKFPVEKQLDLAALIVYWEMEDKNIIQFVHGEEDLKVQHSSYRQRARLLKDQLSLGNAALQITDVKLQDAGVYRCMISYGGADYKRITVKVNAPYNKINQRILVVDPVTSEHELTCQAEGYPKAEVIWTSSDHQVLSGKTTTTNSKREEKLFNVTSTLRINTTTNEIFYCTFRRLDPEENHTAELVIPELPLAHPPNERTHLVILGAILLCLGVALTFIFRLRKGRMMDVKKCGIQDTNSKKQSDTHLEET

[22] = target: full length cyno PD-L1 on cells (cyno) (UniProt G7PSE7); experiment: FACS CHO-K1-cPD-L1, 3 nM mAb
Chain of full length cyno PD-L1 on cells (cyno) (G7PSE7 entry or part of it limits assumed): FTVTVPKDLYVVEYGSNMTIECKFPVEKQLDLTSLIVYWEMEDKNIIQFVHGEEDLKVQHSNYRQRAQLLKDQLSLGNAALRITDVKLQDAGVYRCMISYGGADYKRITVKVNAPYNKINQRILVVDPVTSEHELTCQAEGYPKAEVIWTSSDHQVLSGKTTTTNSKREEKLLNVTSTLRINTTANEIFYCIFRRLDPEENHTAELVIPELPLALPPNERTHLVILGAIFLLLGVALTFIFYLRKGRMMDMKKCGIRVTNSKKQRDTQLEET

[23] = target: full length cyno PD-L1 on cells (cyno) (UniProt G7PSE7); experiment: FACS CHO-K1-cPD-L1, 10 nM mAb
[24] = target: full length human PD-L1 on cells (human) (UniProt Q9NZQ7); experiment: FACS CHOK1-hPD-L1, 300 nM mAb
[25] = target: full length human PD-L1 on cells (human) (UniProt Q9NZQ7); experiment: FACS CHO-K1-hPD-L1, 0.1 nM mAb
[26] = target: full length cyno PD-L1 on cells (cyno) (UniProt G7PSE7); experiment: FACS CHO-K1-cPD-L1, 0.1 nM mAb
[27] = target: full length human PD-L1 on cells (human) (UniProt Q9NZQ7); experiment: FACS CHOK1-hPD-L1, 0.03 nM mAb
[28] = target: full length cyno PD-L1 on cells (cyno) (UniProt G7PSE7); experiment: FACS CHO-K1-cPD-L1, 0.3 nM mAb
[29] = target: full length cyno PD-L1 on cells (cyno) (UniProt G7PSE7); experiment: FACS CHO-K1-cPD-L1, 300 nM mAb
[30] = target: full length cyno PD-L1 on cells (cyno) (UniProt G7PSE7); experiment: FACS CHO-K1-cPD-L1, 1.23 nM mAb
[31] = target: full length human PD-L1 on cells (human) (UniProt Q9NZQ7); experiment: FACS CHOK1-hPD-L1, 0.003 nM mAb
[32] = target: full length cyno PD-L1 on cells (cyno) (UniProt G7PSE7); experiment: FACS CHO-K1-cPD-L1, 0.03 nM mAb
[33] = target: full length cyno PD-L1 on cells (cyno) (UniProt G7PSE7); experiment: FACS CHO-K1-cPD-L1, 0.001 nM mAb
[34] = target: full length cyno PD-L1 on cells (cyno) (UniProt G7PSE7); experiment: FACS CHO-K1-cPD-L1, 11.11 nM mAb
[35] = target: full length human PD-L1 on cells (human) (UniProt Q9NZQ7); experiment: FACS CHOK1-hPD-L1, 0.0003 nM mAb
[36] = target: full length human PD-L1 on cells (human) (UniProt Q9NZQ7); experiment: FACS CHO-K1-hPD-L1, 100.00 nM mAb
[37] = target: full length cyno PD-L1 on cells (cyno) (UniProt G7PSE7); experiment: FACS CHO-K1-cPD-L1, 0.0003 nM mAb
hPD-L2 (human) = hPD-L2 (human) (UniProt Q9BQ51); experiment: ELISA, mAb concentration not given
Chain of hPD-L2 (human) (Q9BQ51 20-219 limits assumed): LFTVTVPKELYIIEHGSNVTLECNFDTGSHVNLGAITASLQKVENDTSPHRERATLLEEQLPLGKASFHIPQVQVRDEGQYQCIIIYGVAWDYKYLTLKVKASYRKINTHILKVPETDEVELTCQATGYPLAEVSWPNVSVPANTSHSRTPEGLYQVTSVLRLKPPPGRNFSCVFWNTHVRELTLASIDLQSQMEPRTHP

[38] = target: human PD-L1^ECD-hFc protein (human) (UniProt Q9NZQ7); experiment: ELISA, mAb concentration not given
[39] = target: full length cyno PD-L1 on cells (cyno) (UniProt G7PSE7); experiment: FACS CHO-K1-cPD-L1, 0.001 nM mAb as printed (second such column)

Chain of cyno PD-L1^ECD-hFc protein (cyno) (G7PSE7 entry or part of it limits assumed): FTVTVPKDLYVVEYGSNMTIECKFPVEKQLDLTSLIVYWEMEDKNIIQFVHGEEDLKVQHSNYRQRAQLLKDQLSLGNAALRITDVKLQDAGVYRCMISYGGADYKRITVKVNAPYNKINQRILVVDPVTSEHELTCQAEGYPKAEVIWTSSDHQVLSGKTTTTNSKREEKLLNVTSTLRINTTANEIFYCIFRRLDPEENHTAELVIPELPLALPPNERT
Chain of human PD-L1^ECD-hFc protein (human) (Q9NZQ7 19-239): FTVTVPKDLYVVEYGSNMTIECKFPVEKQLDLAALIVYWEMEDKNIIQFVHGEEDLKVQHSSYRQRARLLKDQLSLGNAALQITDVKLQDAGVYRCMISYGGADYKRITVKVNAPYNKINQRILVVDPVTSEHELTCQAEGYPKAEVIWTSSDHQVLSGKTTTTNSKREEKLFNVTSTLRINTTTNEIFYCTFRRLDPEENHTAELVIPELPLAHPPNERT

OD450 nm [1]: 0.15 | OD450 nm [2]: 0.306 | OD450 nm [3]: 0.28 | OD450 nm [4]: 0.293 | OD450 nm [5]: 0.276 | OD450 nm [6]: 0.273 | OD450 nm [7]: 0.11 | OD450 nm [8]: 0.11 | OD450 nm [9]: 0.11 | OD450 nm [10]: 0.11 | OD450 nm [11]: 0.11 | OD450 nm [12]: 0.11 | OD450 nm [13]: 0.0972 | OD450 nm [14]: 0.149 | OD450 nm [15]: 0.302 | OD450 nm [16]: 0.298 | OD450 nm [17]: 0.273 | OD450 nm [18]: 0.338 | OD450 nm [19]: 0.31 | OD450 nm [20]: 0.296 | Mean fluorescence intensity [21]: 2.51 | Mean fluorescence intensity [22]: 3.91 | Mean fluorescence intensity [23]: 1.95 | Mean fluorescence intensity [24]: 4.86 | Mean fluorescence intensity [25]: 2.55 | Mean fluorescence intensity [26]: 2.2 | Mean fluorescence intensity [27]: 2.92 | Mean fluorescence intensity [28]: 3.73 | Mean fluorescence intensity [29]: 15.6 | Mean fluorescence intensity [30]: 2.82 | Mean fluorescence intensity [31]: 3.03 | Mean fluorescence intensity [32]: 3.79 | Mean fluorescence intensity [33]: 1.9 | Mean fluorescence intensity [34]: 2.93 | Mean fluorescence intensity [35]: 2.79 | Mean fluorescence intensity [36]: 2.7 | Mean fluorescence intensity [37]: 3.76 | OD450 nm (hPD-L2 (human)): 0.189 | OD450 nm [38]: 0.206 | Mean fluorescence intensity [39]: 7.33
Substance: IgG control (human IgG) (antibody)

Source: patent publication US20190010233A1
